Series [1] concerns SD rats. Kind of series: Rat arterio-venous shunt thrombus formation model. It counts as in vivo. The conditions noted are these: 100 U·kg^−1 i.v. On the procedure: 50 SPF grade male SD rats (provided by the laboratory animal center of Guangdong Medical College, 300-350 g body weight) were randomly divided into saline control group, positive control group (100 U·kg^−1 heparin sodium, Shanghai No. 1 Biochemical & Pharmaceutical Co. Ltd), and rNAPT-1 low dose (100 μg·kg^−1), middle dose (1 mg·kg^−1), high dose group (5 mg·kg^−1), 10 rats each group, respectively. These rats were anaesthetized with 10% chloral hydrate (250 mg/kg) by intraperitoneal injection. The right common carotid artery and left external jugular vein was exposed and dissected bluntly from the surrounding tissue after a surgical incision. One end of a polyethylene pipe (1.5 mm of diameter, 22 cm of length) with a 5 cm length of No. 4 operation suture in it and filled with 50 U/mL heparin solution was inserted into the right common carotid artery, and the other end was inserted into the left external […] vein. 5 min after tail intravenous injection of drugs, the artery clamp was opened, and blood flow from the right common carotid artery to the left external jugular vein through the polyethylene pipe. After 15 min of blood flow, the suture line was quickly removed and weighed. The net weight of thrombus is total weight minus suture weight; inhibition rate=(wet weight of thrombus of saline control group−wet weight of thrombus of administration group)/wet weight of thrombus of saline control group×100%.

Series [2] concerns normal human plasma. Put plainly: aPTT assay in normal human plasma. The conditions noted are these: for prolongation of aPTT (in words): 100 nM and 500 nM; for aPTT: normal human plasma; for multiples of prolonging aPTT: ratio of mean aPTT to blank control. It counts as biochemical. On the procedure: (§1) The recombinant anticoagulant polypeptides were expressed in Escherichia coli and purified in our laboratory. Anticoagulant activity was determined by measuring the aPTT and PT.
For the aPTT assay, 10 μl recombinant protein at various concentrations was mixed with 50 μl fresh normal human plasma, 20 μl aPTT reagent (MDC Hemostasis, Germany) and incubated for 15 mins at 37° C. 20 μl 0.05 mol/L prewarmed CaCl2 was then added to initiate the clotting reaction. The clotting time was measured with the absorbance at 630 nm by using an E1x808 kinetic microtiter reader (BioTek, United States). Each concentration was repeated 3 times. The ratio of the mean aPTT value of each concentration to blank control group is multiples of prolonging the aPTT.

The test system of series [3] is BALb/c mice. Put plainly: Mouse tail bleeding time. It counts as in vivo. To be noted: tail transected after 10 min. As to the method: After 10 min, the distal tip 1.5 mm of the mouse tail was transected and the blood oozed was soaked with filter paper very 30 seconds until the bleeding stops. The bleeding time was defined as the time elapsed from the tail transection to the stoppage of bleeding.

The target of series [4] is T1, human fXIa (Homo sapiens, UniProt P03951).
T1 construct: Human coagulation factors IIa (thrombin), Xa, XIa, XIIa, EGR-fXa; purchased Haematologic Technologies Inc (United States)
Kind of series: Chromogenic assay, fXIa. It counts as biochemical. To be noted: for inhibition of the activity of fXIa: 100 nM; for inhibition of the activity of fXIa (in words): 200 nM. An excerpt: (§2) The recombinant anticoagulant polypeptides in the present invention were expressed in E. coli and purified in our laboratory, of which the activities against coagulation factors were investigated by chromogenic assays. Human coagulation factors IIa (thrombin), Xa, XIa, XIIa, EGR-fXa were products of Haematologic Technologies Inc (United States). Recombinant fVIIa was products of Novo-Nordisk (Denmark). Recombinant soluble tissue factor (sTF) was purchased from Protgen (Beijing, China). The following chromogenic substrates were used for these coagulation factor assays: S2765 for human fXa, S2288 for human fVIIa and fIIa, 52366 for human fXIa and fXIIa, respectively.
(§3) The chromogenic assays were carried out in a total reaction volume of 100 μl in individual wells of a 96-well microtiter plate. 50 μl fIIa, fXa, fXIa, or fXIIa (final concentration: 1 nM) was incubated with 10 μl recombinant anticoagulant polypeptide at various concentrations (or PBS control group) Assays for the detection activity of fVIIa: 50 μl fVIIa+TF (1 μM) and EGR-fXa (final concentration 500 nM) was incubated for 15 mins at 25° C., respectively. After the addition of 40 μl of prewarmed chromogenic substrate to a final concentration of 400 μM, the changes of absorbance at 405 nm were monitored by using an E1x808 kinetic microtiter reader. The data were used to calculate the velocities of response.

The target of series [5] is T2, human fXIIa (Homo sapiens, UniProt P00748).
T2 construct: Human coagulation factors IIa (thrombin), Xa, XIa, XIIa, EGR-fXa; purchased Haematologic Technologies Inc (United States)
T2 sequence (P00748 373-615 limits assumed): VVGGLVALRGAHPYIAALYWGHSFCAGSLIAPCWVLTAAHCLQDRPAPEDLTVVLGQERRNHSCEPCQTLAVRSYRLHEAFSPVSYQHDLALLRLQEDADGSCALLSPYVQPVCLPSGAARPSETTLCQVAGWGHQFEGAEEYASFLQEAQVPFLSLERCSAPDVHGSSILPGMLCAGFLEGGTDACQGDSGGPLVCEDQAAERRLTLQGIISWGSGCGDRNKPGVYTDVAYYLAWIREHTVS
T2 sequence (P00748 20-372 limits assumed): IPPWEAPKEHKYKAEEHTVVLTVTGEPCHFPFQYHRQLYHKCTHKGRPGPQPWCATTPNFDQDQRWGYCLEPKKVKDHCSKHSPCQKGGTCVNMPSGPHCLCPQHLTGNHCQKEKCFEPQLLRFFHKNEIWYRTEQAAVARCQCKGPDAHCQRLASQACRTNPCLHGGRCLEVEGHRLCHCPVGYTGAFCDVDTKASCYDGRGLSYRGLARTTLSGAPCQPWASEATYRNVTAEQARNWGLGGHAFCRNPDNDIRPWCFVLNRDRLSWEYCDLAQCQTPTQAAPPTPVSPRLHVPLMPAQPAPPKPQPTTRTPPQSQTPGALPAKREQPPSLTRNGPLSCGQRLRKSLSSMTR
Put plainly: Chromogenic assay, fXIIa. It counts as biochemical.
Excerpt: as §2, §3

Series [6] has as its target T3, human fXa (Homo sapiens, UniProt P00742).
T3 construct: Human coagulation factors IIa (thrombin), Xa, XIa, XIIa, EGR-fXa; purchased Haematologic Technologies Inc (United States)
Kind of series: Chromogenic assay, fXa. It counts as biochemical.
Excerpt: as §2, §3

Series [7] has as its target T4, fVIIa/TF (Homo sapiens, UniProt P08709).
T4 construct: Recombinant fVIIa was products of Novo-Nordisk (Denmark); purchased Novo-Nordisk (Denmark) for fVIIa; Protgen (Beijing, China) for sTF; Haematologic Technologies Inc for EGR-fXa
Kind of series: Chromogenic assay, fVIIa/TF. It counts as biochemical.
Excerpt: as §2, §3

For series [8], the system named is normal human plasma. Kind of series: PT assay in normal human plasma. It counts as biochemical. The conditions noted are these: for prolongation of PT (in words): 100 nM and 500 nM; for PT: normal human plasma. On the procedure:
as §1
For the PT assay, 10 μl recombinant protein at various concentration was mixed with 45 μl normal human plasma and incubated for 15 mins at 37° C. 45 μl prewarmed PT reagent (MDC Hemostasis, Germany) was then added and the clotting time was measured with the absorbance at 630 nm by using an E1x808 kinetic microtiter reader (BioTek, United States). Each concentration was repeated 3 times.

Series [9] deals with T5, human fIIa (thrombin) (Homo sapiens, UniProt P00734).
T5 construct: Human coagulation factors IIa (thrombin), Xa, XIa, XIIa, EGR-fXa; purchased Haematologic Technologies Inc (United States)
Kind of series: Chromogenic assay, fIIa (thrombin). It counts as biochemical.
Excerpt: as §2, §3

The results in this text go back to US9243044B2, “Anticoagulant polypeptide and applications thereof” (GUANGDONG MEDICAL COLLEGE, priority 2011, dated 2016).

T1 sequence (P03951 19-387 limits assumed): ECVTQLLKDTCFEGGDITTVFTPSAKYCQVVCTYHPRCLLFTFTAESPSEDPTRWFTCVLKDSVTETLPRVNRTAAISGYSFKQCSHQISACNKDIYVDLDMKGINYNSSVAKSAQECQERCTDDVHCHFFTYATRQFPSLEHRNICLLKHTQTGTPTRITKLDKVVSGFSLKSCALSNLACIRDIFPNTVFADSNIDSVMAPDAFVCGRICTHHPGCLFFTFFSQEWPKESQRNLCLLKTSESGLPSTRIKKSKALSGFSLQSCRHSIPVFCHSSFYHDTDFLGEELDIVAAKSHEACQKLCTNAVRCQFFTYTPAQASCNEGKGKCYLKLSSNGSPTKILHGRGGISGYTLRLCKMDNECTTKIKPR
T1 sequence (P03951 388-625 limits assumed): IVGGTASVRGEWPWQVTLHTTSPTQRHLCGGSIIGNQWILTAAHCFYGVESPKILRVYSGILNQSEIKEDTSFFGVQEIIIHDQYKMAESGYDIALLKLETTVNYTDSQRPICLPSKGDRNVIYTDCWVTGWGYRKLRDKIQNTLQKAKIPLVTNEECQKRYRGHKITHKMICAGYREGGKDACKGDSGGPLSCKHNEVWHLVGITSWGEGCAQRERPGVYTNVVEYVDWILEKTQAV
T4 sequence (P08709 61-212 limits assumed): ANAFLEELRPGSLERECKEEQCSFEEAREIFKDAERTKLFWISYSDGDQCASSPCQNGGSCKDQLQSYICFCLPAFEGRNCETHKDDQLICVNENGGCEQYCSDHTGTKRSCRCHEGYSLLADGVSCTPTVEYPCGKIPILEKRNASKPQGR
T4 sequence (P08709 213-466 limits assumed): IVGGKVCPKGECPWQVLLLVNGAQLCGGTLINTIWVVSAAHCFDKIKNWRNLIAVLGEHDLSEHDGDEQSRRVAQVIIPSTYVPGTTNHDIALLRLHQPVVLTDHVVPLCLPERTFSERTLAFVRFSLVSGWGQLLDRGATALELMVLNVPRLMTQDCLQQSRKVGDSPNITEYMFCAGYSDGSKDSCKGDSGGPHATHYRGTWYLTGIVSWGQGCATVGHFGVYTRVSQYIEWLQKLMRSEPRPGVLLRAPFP
T4 sequence (P13726 33-251 partner limits assumed): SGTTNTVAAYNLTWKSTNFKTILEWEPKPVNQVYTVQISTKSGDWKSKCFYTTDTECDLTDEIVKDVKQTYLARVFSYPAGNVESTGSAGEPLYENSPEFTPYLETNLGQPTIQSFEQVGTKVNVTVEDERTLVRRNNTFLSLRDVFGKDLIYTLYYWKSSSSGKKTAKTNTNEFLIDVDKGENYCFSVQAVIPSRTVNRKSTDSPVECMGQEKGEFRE
T3 sequence (P00742 41-179 limits assumed): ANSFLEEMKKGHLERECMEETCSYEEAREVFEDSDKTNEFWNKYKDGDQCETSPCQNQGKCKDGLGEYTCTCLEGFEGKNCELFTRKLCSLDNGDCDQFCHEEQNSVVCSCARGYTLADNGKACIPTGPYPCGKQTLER
T3 sequence (P00742 235-488 limits assumed): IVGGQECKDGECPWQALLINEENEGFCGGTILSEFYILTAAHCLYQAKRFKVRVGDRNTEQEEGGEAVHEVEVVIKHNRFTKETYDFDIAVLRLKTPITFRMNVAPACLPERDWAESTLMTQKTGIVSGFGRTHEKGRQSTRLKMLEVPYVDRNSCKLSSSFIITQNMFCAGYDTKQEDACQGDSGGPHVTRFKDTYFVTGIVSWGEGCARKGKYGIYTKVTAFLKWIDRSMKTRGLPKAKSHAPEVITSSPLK

As to heparin sodium [reference compound], the “wet weight of thrombus” value in series [1] is given as 14.2 ± 3.6 mg. Moreover, in series [1] (vs saline control), the Inhibition rate % is 74.3%.

B1: NAPTin-7 (protein)
chain: NPSCGENERHDECSRKECDPKCKYDGTEEKDDEKPVVCLTRVCYGDCICRDGFLRNKNGACVKAEDC
modifications: Sequence derived from Ancylostoma caninum or Synthetic
Turning to B1, in series [2], the “prolongation of aPTT (in words)” value is “significantly prolong aPTT”. For the same molecule, the figures for the “aPTT” value in series [2] (100 nM) and in series [2] (500 nM) were 78.7 ± 8.1 s and 218.3 ± 5.9 s, respectively. Besides, the figures for the “multiples of prolonging aPTT” value in series [2] (100 nM) and in [2] (500 nM) were 1.96 and 5.44, respectively. For the same molecule, the “Bleeding time” value in series [3] (100 μg·kg^−1 tail vein) came to 8.30 ± 2.0 min; in series [3] (1 mg·kg^−1 tail vein), 8.26 ± 1.9 min; in [3] (5 mg·kg^−1 tail vein), 8.31 ± 2.2 min. The “inhibition of the activity of fXIa” value in series [4] is “more than 90%”. The “inhibition of the activity of fXIa (in words)” value (from here on “inhibition … (in words)”) in series [4] is reported as “almost completely inhibited”. Also, the “effect on fXIIa activity (in words)” value in [5] (100 nM) and in series [5] (200 nM) was “without affecting” throughout. For the same molecule, the “effect on fXa activity (in words)” value in series [6] (100 nM) and in [6] (200 nM) was “without affecting” each time. Further, the “effect on fVIIa/TF activity (in words)” value in series [7] (100 nM) and in series [7] (200 nM) was “without affecting” each time. The “prolongation of PT (in words)” value in series [8] is “couldn't prolong PT”. The entries for the “PT” value in series [8] (100 nM) and in series [8] (500 nM) were 11.7 ± 0.5 s and 12.7 ± 0.4 s, respectively. Further, the “effect on fIIa activity (in words)” value in [9] (100 nM) and in series [9] (200 nM) was “without affecting” in each case.

B2: NAPTin-3 (protein)
chain: NPSCGENERHDECSRKECDPKCKYDGTEEKDDEKPVVCLTRVCYGDCICRDGFLRNKNGACVKAEDCELDNM
modifications: Sequence derived from Ancylostoma caninum or Synthetic
Consider B2, for which the “prolongation of aPTT (in words)” value in [2] is “significantly prolong aPTT”. For the same molecule, the figures for the “aPTT” value in series [2] (100 nM) and in [2] (500 nM) were 83.0 ± 1.2 s and 219.3 ± 6.2 s, respectively. For the same molecule, the “multiples of prolonging aPTT” value in series [2] (100 nM) is 2.07; in [2] (500 nM), 5.47. The “Bleeding time” value was found to be 8.38 ± 1.3 min in series [3] (100 μg·kg^−1 tail vein), 8.29 ± 2.5 min in [3] (1 mg·kg^−1 tail vein) and 8.32 ± 1.8 min in series [3] (5 mg·kg^−1 tail vein). For the same molecule, in series [4], the “inhibition of the activity of fXIa” value is given as “more than 90%”. Also, in series [4], the “inhibition … (in words)” value was “almost completely inhibited”. Further, the “effect on fXIIa activity (in words)” value in series [5] (100 nM) and in [5] (200 nM) was “without affecting” each time. The “effect on fXa activity (in words)” value in series [6] (100 nM) and in series [6] (200 nM) was “without affecting” throughout. Besides, the “effect on fVIIa/TF activity (in words)” value in series [7] (100 nM) and in [7] (200 nM) was “without affecting” each time. The “prolongation of PT (in words)” value in [8] is listed as “couldn't prolong PT”. The “PT” value in series [8] (100 nM) came to 13.5 ± 0.4 s; in series [8] (500 nM) it was 12.3 ± 0.8 s. Further, the “effect on fIIa activity (in words)” value in series [9] (100 nM) and in series [9] (200 nM) was “without affecting” throughout.

B3: NAPTin-5 (protein)
chain: NPSCGENERHDECSRKECDPKCKYDGTEEKDDEKPVVCLTRVCYGDCICRDGFLRNKNGACVKAEDCEL
modifications: Sequence derived from Ancylostoma caninum or Synthetic
B3: the “prolongation of aPTT (in words)” value in series [2] is listed as “significantly prolong aPTT”. For the same molecule, the “aPTT” value in series [2] (100 nM) worked out at 77.9 ± 2.9 s; in [2] (500 nM), 226.8 ± 6.6 s. Moreover, the “multiples of prolonging aPTT” value in [2] (100 nM) was 1.94; in [2] (500 nM) it was 5.66. The “Bleeding time” value came out at 8.30 ± 2.3 min in series [3] (100 μg·kg^−1 tail vein), 8.31 ± 1.0 min in [3] (1 mg·kg^−1 tail vein) and 8.33 ± 2.4 min in series [3] (5 mg·kg^−1 tail vein). The “inhibition of the activity of fXIa” value in series [4] was “more than 90%”. The “inhibition … (in words)” value in [4] was “almost completely inhibited”. Also, the “effect on fXIIa activity (in words)” value in [5] (100 nM) and in [5] (200 nM) was “without affecting” in each case. For the same molecule, the “effect on fXa activity (in words)” value in series [6] (100 nM) and in series [6] (200 nM) was “without affecting” in each case. Moreover, the “effect on fVIIa/TF activity (in words)” value in series [7] (100 nM) and in [7] (200 nM) was “without affecting” in each case. Moreover, the “prolongation of PT (in words)” value in [8] is reported as “couldn't prolong PT”. Besides, the “PT” value is 12.2 ± 0.6 s in series [8] (100 nM) and 12.6 ± 0.4 s in series [8] (500 nM). The “effect on fIIa activity (in words)” value in series [9] (100 nM) and in series [9] (200 nM) was “without affecting” throughout.
